Among the data in article PMC2949298 are Kd values, retold here.

This assay has as its target 21c Fab (human). Kind of assay: SPR. On the technique in general: Surface plasmon resonance follows binding to a sensor surface in real time, without labels.

Take “CAP210_(V1V2) (core CAP210 gp120 containing the V1V2 loop) with sCD4 (complex)”: the Kd (usually the constant that tells how readily two partners part at equilibrium) was 92 nM.
